This passage reports PLU mean, ELISA Value Replicate 1 and ELISA Value Replicate 2 results from US20220229068A1, “DETECTION OF PROTEIN TO PROTEIN INTERACTIONS” (THE GOVERNING COUNCIL OF THE UNIVERSITY OF TORONTO, priority 2019, published 2022).

Experiment [1] addresses CCNA1 (prey, CIC format) (human) (UniProt P78396). The experiment is described as follows: SIMPL ELISA, bait-IN/prey-CIC. For orientation: An ELISA detects its analyte on a solid surface through an enzyme-linked reagent.
Experiment [2] concerns the target T1, PEX11B (prey, CIC format) (human) (UniProt O96011).
T1 sequence (looked up): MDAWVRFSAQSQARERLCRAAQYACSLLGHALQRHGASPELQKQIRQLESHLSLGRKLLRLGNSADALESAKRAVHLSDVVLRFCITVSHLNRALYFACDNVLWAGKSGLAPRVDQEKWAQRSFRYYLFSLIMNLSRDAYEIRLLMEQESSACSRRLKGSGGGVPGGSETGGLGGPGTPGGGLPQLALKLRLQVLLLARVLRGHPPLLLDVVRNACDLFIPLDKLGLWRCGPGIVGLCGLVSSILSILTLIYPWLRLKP
The experiment in a line: SIMPL ELISA, bait-IN/prey-CIC.

The target in experiment [3] is IGFBP4 (prey, CIC format) (human) (UniProt P22692). The experiment in a line: SIMPL ELISA, bait-IN/prey-CIC.
Chain of IGFBP4 (prey, CIC format) (human) (P22692 22-258 limits assumed): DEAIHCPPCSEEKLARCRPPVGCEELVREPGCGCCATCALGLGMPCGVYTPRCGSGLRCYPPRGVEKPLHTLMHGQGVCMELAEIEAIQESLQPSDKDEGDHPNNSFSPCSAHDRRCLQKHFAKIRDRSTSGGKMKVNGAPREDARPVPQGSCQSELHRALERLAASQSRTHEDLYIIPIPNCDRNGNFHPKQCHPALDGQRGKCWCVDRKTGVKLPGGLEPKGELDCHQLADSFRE
Experiment [4] has as its target HSP90AA1 (prey, CIC format) (human) (UniProt P07900). The experiment in a line: SIMPL ELISA, bait-IN/prey-CIC.
Experiment [5] addresses RPA3 (prey, CIC format) (human) (UniProt P35244). The experiment in a line: SIMPL ELISA, bait-IN/prey-CIC.
The target of experiment [6] is T2, ARFIP2 (prey, CIC format) (human) (UniProt P53365).
T2 sequence (looked up): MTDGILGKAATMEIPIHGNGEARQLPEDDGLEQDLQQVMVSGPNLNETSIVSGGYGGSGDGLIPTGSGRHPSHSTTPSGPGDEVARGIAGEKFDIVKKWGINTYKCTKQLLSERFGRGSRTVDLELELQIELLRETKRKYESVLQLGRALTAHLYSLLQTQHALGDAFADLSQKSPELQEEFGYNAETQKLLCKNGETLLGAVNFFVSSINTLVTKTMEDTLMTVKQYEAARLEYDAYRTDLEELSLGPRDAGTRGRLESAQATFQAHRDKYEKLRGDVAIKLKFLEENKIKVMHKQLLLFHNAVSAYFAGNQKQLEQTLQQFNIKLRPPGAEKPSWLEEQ
The experiment in a line: SIMPL ELISA, bait-IN/prey-CIC.

Experiment [7] addresses FOS (prey, CIC format) (human) (UniProt P01100). The experiment in a line: SIMPL ELISA, bait-IN/prey-CIC.
The target of experiment [8] is SRC (prey, CIC format) (human) (UniProt P12931). The experiment in a line: SIMPL ELISA, bait-IN/prey-CIC.
In experiment [9] the target is RAD23A (prey, CIC format) (human) (UniProt P54725). The experiment in a line: SIMPL ELISA, bait-IN/prey-CIC.
For experiment [10], the target named is PEX16 (prey, CIC format) (human) (UniProt Q9Y5Y5). The experiment is described as follows: SIMPL ELISA, bait-IN/prey-CIC.
Chain of PEX16 (prey, CIC format) (human) (Q9Y5Y5 whole entry): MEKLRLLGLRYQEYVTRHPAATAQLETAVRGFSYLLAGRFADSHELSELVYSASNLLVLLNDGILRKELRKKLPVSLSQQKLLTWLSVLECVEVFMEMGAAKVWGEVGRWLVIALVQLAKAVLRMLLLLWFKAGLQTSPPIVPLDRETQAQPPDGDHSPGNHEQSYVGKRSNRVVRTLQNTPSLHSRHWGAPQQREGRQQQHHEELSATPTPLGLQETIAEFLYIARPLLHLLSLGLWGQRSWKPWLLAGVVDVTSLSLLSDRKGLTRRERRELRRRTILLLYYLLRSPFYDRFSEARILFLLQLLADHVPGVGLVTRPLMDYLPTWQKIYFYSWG
In experiment [11] the target is PDGFRB (prey, CIC format) (human) (UniProt P09619). The experiment in a line: SIMPL ELISA, bait-IN/prey-CIC.
Chain of PDGFRB (prey, CIC format) (human) (P09619 33-1106 limits assumed): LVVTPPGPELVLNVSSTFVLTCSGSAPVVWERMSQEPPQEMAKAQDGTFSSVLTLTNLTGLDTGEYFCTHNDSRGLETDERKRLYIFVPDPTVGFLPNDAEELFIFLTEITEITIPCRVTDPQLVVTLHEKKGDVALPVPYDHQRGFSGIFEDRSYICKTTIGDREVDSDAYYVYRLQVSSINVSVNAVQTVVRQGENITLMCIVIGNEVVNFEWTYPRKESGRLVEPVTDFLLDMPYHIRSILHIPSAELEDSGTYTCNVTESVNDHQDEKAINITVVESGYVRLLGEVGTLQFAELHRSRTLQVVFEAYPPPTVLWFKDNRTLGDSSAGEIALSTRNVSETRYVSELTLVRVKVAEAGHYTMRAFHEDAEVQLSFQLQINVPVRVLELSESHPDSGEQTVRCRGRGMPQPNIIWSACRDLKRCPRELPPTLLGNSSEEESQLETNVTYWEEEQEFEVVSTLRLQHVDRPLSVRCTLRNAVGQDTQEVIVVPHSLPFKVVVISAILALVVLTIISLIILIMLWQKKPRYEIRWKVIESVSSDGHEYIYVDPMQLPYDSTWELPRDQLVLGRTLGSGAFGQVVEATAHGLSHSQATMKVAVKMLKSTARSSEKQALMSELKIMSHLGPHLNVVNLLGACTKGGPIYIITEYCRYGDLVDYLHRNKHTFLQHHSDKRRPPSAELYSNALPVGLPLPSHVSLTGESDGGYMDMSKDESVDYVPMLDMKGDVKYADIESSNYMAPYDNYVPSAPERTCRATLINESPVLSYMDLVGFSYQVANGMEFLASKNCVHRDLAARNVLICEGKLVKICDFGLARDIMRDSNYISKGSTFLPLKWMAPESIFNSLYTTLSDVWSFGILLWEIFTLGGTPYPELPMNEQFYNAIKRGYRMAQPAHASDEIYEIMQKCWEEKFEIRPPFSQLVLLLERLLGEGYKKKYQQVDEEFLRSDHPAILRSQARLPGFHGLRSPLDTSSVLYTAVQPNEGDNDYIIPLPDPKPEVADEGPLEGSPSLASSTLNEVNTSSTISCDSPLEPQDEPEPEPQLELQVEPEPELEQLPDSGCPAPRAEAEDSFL
The target in experiment [12] is T3, NOD1 (prey, CIC format) (human) (UniProt Q9Y239).
T3 sequence (looked up): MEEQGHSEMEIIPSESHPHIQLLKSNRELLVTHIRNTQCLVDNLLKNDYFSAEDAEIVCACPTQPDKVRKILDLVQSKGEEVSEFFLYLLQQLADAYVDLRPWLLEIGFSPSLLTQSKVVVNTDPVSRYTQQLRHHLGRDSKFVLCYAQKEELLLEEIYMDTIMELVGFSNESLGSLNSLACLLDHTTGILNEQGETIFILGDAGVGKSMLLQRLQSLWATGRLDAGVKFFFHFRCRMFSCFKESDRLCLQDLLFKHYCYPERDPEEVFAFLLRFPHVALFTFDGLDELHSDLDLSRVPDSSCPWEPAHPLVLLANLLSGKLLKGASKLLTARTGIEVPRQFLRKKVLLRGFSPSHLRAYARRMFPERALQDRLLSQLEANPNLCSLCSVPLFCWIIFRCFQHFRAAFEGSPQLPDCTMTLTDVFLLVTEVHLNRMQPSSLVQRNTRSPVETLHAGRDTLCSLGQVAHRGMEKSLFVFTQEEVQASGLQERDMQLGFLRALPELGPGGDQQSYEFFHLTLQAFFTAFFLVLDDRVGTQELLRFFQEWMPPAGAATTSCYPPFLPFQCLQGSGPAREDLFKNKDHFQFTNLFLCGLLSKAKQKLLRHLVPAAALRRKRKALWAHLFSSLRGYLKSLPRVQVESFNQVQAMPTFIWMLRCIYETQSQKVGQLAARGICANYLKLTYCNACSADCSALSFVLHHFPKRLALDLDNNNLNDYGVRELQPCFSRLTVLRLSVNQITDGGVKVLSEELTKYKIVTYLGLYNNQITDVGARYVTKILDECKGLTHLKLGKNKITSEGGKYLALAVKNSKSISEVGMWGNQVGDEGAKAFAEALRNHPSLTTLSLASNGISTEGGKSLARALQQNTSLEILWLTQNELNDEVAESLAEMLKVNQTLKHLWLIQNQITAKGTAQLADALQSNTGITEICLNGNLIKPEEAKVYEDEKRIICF
The experiment in a line: SIMPL ELISA, bait-IN/prey-CIC.

For experiment [13], the target named is NFE2L1 (prey, CIC format) (human) (UniProt Q14494). The experiment in a line: SIMPL ELISA, bait-IN/prey-CIC.
Experiment [14] concerns the target SKR-2 (C. elegans prey, IC format) (C. elegans). The experiment in a line: SIMPL ELISA, C. elegans lysate, IN/IC; ratio of spliced signal to total signal.
Experiment [15] concerns the target NCK1 (prey, CIC format) (human) (UniProt P16333). The experiment in a line: SIMPL ELISA, bait-IN/prey-CIC.
In experiment [16] the target is FGFR1 (prey, CIC format) (human) (UniProt P11362). The experiment in a line: SIMPL ELISA, bait-IN/prey-CIC.
Experiment [17] deals with T4, RB1 (prey, CIC format) (human) (UniProt P06400).
T4 sequence (looked up): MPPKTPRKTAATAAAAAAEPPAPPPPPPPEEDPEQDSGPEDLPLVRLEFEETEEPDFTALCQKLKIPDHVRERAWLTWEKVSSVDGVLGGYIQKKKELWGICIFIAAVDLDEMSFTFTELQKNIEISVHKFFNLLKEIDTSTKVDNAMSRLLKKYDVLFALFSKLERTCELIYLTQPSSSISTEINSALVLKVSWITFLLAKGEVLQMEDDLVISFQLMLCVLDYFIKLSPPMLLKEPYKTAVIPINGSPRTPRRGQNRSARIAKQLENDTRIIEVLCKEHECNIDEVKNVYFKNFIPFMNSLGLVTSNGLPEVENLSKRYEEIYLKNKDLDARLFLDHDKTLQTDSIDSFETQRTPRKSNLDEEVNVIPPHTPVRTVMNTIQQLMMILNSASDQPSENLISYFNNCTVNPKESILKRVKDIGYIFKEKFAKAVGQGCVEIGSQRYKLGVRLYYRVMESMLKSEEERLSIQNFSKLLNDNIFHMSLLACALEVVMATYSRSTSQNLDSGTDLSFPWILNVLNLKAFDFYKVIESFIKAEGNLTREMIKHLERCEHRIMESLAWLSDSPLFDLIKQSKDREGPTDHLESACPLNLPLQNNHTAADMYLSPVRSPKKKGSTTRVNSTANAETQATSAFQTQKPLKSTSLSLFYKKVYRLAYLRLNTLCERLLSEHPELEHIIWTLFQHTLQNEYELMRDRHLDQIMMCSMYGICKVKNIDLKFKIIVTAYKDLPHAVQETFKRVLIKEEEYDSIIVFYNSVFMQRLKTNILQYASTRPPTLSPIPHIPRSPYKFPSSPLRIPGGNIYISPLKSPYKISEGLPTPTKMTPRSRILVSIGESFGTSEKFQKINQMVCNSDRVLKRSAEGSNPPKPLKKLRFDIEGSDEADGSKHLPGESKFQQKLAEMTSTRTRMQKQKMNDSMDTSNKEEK
The experiment is described as follows: SIMPL ELISA, bait-IN/prey-CIC.

Experiment [18] deals with SKP2 (prey, CIC format) (human) (UniProt Q13309). The experiment in a line: SIMPL ELISA, bait-IN/prey-CIC.
Chain of SKP2 (prey, CIC format) (human) (Q13309 whole entry, canonical isoform): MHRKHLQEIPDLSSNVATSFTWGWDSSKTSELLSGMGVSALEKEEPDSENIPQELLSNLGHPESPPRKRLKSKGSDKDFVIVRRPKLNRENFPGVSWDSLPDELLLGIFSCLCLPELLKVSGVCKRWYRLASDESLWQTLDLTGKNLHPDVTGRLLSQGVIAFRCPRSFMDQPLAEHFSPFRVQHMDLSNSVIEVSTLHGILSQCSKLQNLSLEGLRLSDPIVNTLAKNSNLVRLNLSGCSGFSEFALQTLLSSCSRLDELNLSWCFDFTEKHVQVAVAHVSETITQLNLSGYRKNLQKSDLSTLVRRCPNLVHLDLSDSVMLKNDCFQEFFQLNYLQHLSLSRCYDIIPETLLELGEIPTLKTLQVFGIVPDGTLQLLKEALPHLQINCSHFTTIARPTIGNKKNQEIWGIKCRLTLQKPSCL
The target of experiment [19] is SKR-2 (C. elegans prey, CIC format) (C. elegans). The experiment in a line: SIMPL ELISA, C. elegans lysate, IN/CIC; ratio of spliced signal to total signal.
In experiment [20] the target is SMAD4 (prey, CIC format) (human) (UniProt Q13485). The experiment in a line: SIMPL ELISA, bait-IN/prey-CIC.
Experiment [21] deals with CXCR2 (prey, CIC format) (human) (UniProt P25025). The experiment in a line: SIMPL ELISA, bait-IN/prey-CIC.
Chain of CXCR2 (prey, CIC format) (human) (P25025 whole entry): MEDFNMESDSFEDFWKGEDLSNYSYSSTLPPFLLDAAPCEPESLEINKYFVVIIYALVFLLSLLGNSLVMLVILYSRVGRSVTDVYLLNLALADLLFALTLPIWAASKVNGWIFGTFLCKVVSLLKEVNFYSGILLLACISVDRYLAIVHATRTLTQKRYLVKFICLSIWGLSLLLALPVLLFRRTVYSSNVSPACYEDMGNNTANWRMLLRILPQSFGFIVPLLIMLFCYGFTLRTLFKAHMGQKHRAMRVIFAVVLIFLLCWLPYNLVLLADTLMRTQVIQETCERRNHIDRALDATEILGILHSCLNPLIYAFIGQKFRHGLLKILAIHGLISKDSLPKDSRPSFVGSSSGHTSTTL
Experiment [22] concerns the target CDK6 (prey, CIC format) (human) (UniProt Q00534). The experiment is described as follows: SIMPL ELISA, bait-IN/prey-CIC.
The target in experiment [23] is HGS (prey, CIC format) (human) (UniProt O14964). The experiment in a line: SIMPL ELISA, bait-IN/prey-CIC.
Chain of HGS (prey, CIC format) (human) (O14964 whole entry): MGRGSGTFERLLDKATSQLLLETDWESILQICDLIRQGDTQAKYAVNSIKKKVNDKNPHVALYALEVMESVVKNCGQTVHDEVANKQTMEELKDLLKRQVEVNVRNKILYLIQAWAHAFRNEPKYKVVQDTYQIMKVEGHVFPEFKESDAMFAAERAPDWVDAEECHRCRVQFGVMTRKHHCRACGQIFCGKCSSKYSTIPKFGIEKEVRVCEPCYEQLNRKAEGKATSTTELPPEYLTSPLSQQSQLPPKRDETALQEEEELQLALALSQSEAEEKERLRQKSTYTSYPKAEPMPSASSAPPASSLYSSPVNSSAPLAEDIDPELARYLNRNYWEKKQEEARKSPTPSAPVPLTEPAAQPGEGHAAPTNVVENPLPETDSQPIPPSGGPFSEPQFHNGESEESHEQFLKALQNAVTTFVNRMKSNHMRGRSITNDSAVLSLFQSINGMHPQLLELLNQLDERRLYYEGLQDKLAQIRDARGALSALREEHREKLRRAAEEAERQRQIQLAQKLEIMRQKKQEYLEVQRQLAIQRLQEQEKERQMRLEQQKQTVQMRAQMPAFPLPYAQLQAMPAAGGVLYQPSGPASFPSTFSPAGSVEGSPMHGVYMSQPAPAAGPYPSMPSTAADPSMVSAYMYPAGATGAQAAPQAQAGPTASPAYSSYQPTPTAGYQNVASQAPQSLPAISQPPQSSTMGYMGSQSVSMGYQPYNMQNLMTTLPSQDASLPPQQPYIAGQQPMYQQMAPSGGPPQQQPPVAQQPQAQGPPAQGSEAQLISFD
The target in experiment [24] is RAP1A (prey, CIC format) (human) (UniProt P62834). The experiment in a line: SIMPL ELISA, bait-IN/prey-CIC.
Chain of RAP1A (prey, CIC format) (human) (P62834 whole entry): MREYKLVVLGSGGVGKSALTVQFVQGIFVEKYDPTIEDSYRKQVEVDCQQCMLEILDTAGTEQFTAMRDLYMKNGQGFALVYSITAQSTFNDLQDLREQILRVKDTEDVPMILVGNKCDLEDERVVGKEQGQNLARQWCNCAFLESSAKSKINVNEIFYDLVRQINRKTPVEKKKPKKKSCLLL
The target in experiment [25] is T5, NRG1 (prey, CIC format) (human) (UniProt Q02297).
T5 sequence (looked up): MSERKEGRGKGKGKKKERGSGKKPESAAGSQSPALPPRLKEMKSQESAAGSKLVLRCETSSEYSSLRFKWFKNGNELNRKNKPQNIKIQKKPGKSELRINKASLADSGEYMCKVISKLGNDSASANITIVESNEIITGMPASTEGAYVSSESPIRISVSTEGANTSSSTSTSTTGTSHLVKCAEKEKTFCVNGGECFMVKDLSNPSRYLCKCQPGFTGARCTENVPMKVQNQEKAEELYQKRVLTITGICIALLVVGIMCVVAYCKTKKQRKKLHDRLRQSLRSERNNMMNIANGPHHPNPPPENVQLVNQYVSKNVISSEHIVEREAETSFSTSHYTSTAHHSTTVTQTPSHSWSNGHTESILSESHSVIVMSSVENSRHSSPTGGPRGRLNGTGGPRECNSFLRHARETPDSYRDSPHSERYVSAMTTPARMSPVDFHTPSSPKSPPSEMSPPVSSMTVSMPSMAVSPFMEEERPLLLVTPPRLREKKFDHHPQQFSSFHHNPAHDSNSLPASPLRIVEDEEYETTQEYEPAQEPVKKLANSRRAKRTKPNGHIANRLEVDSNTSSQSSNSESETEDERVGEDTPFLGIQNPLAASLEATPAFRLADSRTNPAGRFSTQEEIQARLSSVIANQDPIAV
The experiment is described as follows: SIMPL ELISA, bait-IN/prey-CIC.

Chain of RIPK2 (bait, IN format) (O43353 whole entry): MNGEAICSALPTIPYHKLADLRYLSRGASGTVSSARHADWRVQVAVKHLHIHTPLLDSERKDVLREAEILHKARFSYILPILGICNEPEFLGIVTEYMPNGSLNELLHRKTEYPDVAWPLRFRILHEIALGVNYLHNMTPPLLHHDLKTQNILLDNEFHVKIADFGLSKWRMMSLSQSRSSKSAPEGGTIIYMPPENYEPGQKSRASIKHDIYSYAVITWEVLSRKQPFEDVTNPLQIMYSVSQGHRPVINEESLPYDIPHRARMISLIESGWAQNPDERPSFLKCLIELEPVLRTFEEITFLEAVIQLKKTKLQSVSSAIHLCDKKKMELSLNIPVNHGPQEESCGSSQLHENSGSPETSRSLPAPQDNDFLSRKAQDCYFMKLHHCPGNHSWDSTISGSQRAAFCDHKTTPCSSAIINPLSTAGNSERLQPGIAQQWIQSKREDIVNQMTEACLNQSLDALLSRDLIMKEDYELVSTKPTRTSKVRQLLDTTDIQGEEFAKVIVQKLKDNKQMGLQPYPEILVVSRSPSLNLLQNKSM
Chain of FOS (prey, CIC format) (human) (P01100 whole entry): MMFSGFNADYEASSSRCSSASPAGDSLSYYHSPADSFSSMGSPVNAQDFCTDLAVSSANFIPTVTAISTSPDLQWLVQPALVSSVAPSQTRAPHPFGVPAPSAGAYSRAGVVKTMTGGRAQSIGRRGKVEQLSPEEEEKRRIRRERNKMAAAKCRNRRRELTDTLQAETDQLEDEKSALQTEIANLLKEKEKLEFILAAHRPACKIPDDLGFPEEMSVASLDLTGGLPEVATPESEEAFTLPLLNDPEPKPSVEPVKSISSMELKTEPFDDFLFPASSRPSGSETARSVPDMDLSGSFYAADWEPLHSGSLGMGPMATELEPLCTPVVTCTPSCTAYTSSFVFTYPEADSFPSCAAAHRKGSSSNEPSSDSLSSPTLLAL
Chain of RPA3 (prey, CIC format) (human) (P35244 whole entry): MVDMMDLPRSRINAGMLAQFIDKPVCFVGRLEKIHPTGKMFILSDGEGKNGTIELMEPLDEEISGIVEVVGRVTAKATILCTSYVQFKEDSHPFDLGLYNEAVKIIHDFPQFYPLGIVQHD
Chain of CCNA1 (prey, CIC format) (human) (P78396 whole entry): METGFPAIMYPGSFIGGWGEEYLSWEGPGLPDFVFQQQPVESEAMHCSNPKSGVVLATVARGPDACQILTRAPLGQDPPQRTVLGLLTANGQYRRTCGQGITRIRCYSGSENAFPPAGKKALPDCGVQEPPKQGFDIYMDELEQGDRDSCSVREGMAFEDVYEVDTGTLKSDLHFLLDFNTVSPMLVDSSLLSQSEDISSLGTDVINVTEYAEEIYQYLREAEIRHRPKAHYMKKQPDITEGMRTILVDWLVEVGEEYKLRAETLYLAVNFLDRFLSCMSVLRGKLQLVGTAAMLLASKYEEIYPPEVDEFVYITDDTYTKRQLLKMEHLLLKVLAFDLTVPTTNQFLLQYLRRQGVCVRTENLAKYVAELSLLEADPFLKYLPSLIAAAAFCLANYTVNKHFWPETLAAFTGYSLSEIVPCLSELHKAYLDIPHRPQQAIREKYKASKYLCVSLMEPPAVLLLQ

“CDKN1A (bait, IN format) (from UniProt P38936 1-164)”: the PLU mean in experiment [1] came out at 0.516; in experiment [2], 0.113.
Take “IGF2 (bait, IN format) (from UniProt P01344 25-180) (ligand)”: the PLU mean turned out to be 0.943 in [3], 0.404 in experiment [4], 0.525 in experiment [5] and 0.266 in experiment [6].
“PPP3CA (bait, IN format) (from UniProt Q08209 1-521)” came in with a PLU mean in experiment [7] of 0.245.
For the substance “PTK2/FAK (bait, IN format) (from UniProt Q05397 1-1052) (enzyme)”, the PLU mean in experiment [8] is 0.599.
For the substance “B2M (bait, IN format) (from UniProt P61769 21-119)”, the PLU mean in experiment [9] came to 0.0155; in experiment [10] it was 0.0408.
For “RIPK2 (bait, IN format) (from UniProt O43353 1-540)”, the PLU mean is 0.881 in [11], 0.555 in [3] and 1.17 in experiment [12].
As for “GRAP2 (bait, IN format) (from UniProt O75791 1-330)”, in [13], the PLU mean was 0.131.
With T10E9.1 (C. elegans bait, IN-V5/HA), in experiment [14], the ELISA Value Replicate 1 is 0.78 and the ELISA Value Replicate 2 is 0.55.
Take “FGF1 (bait, IN format) (from UniProt P05230 1-155) (ligand)”: the PLU mean in experiment [15] turned out to be 0.374; in [16], 0.334; in [17], 0.324.
In the case of “ARF1 (bait, IN format) (from UniProt P84077 1-181)”, the PLU mean is 0.301 in experiment [18] and 0.491 in [6].
In experiment [10], “MAPK7 (bait, IN format) (from UniProt Q13164 1-816) (enzyme)” yielded a PLU mean of 0.231.
For the substance FBXA-196 (C. elegans bait, IN-V5/HA), the ELISA Value Replicate 1 in experiment [19] was 1.1; in [14] it was 0.81. The ELISA Value Replicate 2 worked out at 0.28 in [19] and 0.51 in experiment [14].
For “SMAD3 (bait, IN format) (from UniProt P84022 1-425)”, the PLU mean in [20] was 0.399; in experiment [21] it was 0.144.
The substance “TNFSF10 (bait, IN format) (from UniProt P50591 1-281) (ligand)” registered a PLU mean in [22] of 0.316.
As to “NF2 (bait, IN format) (from UniProt P35240 1-595)”, the PLU mean in [7] was determined as 0.481; in experiment [23], 0.836.
With FBXA-215 (C. elegans bait, IN-V5/HA), the results for the ELISA Value Replicate 1 in [19] and in [14] were 0.73 and 0.84, respectively. The ELISA Value Replicate 2 in experiment [19] came to 0.42; in experiment [14] it was 0.58.
The substance “RAF1 (bait, IN format) (from UniProt P04049 1-648) (enzyme)” displayed a PLU mean in [24] of 0.578.
In turn, “HIF1A (bait, IN format) (from UniProt Q16665 1-826)” yielded a PLU mean in experiment [6] of 0.324.
Substance “BAK1 (bait, IN format) (from UniProt Q16611 1-211)” displayed a PLU mean in [24] of 0.564.
Take “DDIT3 (bait, IN format) (from UniProt P35638 1-169)”: the PLU mean in experiment [7] was 0.642; in [25] it was 0.0963.
